The assay concerns the target Alexa labeled human IgG. The assay can be described thus: flow cytometry of E. coli displaying the construct, 300 nM Alexa labeled human IgG; two hour induction; reference CPX display. On the technique in general: A flow cytometer gives signals particle by particle.

The substance “eCPX displaying the mini-Z-domain at the N-terminus” gave a fold higher display level than from CPX of 3 fold.

The record behind these values is patent US20160010082A1.
